How the values were obtained:
Experiment in all cases: Der pI substrate assay with FRET peptides (fluorescence, Km, kcat/Km)
Type in all cases: biochemical, house dust mite
Conditions in all cases: other: purified Der pI; peptides SEQ ID Nos. 1-76; pH 8.25
[1] = substrate: CC(C)CC[C@H](NC(=O)[C@H](C)NC(=O)[C@H](CC(C)C)NC(=O)c1ccccc1N)C(=O)N[C@@H](CO)C(=O)N[C@@H](Cc1ccc(O)c([N+](=O)[O-])c1)C(=O)N[C@@H](CC(=O)O)C(N)=O
Description: (§1) Using the general techniques described above, the following compounds were prepared and assayed as potential substrates against Der pI purified as described above.
(§2) Each mixture of 20 compounds in the libraries of the apparatus described herein was screened at a concentration of 1.0 μM per compound in an assay against the cysteinyl protease Der pI.
(§3) Plate assays were carried out in 96 well plate format, using 0.1 ug of Der pI per 100 μL assay volume in each well and using 20 μM of the substrate. All assays were performed in Assay Buffer (AB; 50 mM potassium phosphate, pH 8.25 containing 1 mM ethylenediaminetetraacetic acid (EDTA) and 1 mM dithiothreitol (DTT). The Der pI enzyme is pre-activated by addition of DTT and this in incubated at room temperature for 5 min. prior to initiation of the assay. As an example for the screening methodology, each well contains a 5 μL of a 20 μM solution of the test compound in DMSO, 10 μL of a 200 μM aqueous solution of the substrate, 2, and 85 μL of Der pI in AB is added to initiate the reaction. Enzyme activity is monitored by fluorescence using 320 nm for excitation and 420 nm for the emission wavelengths using a Labsystems Fluroskan Ascent machine. Kinetic measurements were carried out using a Hitachi F-4500 Fluorescence Spectrophotometer.

[2] = substrate: CC(C)CC[C@H](NC(=O)[C@H](C)NC(=O)[C@H](Cc1ccc(-c2ccccc2)cc1)NC(=O)c1ccccc1N)C(=O)N[C@@H](Cc1cccnc1)C(=O)N[C@@H](Cc1ccc(O)c([N+](=O)[O-])c1)C(=O)N[C@@H](CC(=O)O)C(N)=O
Description: as §1, §2, §3

[3] = substrate: CCCC[C@H](NC(=O)[C@H](C)NC(=O)[C@@H](NC(=O)[C@H](CCC(=O)O)NC(=O)c1ccccc1N)C(C)C)C(=O)N[C@@H](CO)C(=O)N[C@@H](Cc1ccc(O)c([N+](=O)[O-])c1)C(=O)N[C@@H](CC(=O)O)C(N)=O
Description: as §1, §2, §3

[4] = substrate: CCCC[C@H](NC(=O)[C@H](C)NC(=O)[C@@H](NC(=O)[C@H](Cc1ccc(-c2ccccc2)cc1)NC(=O)c1ccccc1N)C(C)C)C(=O)N[C@@H](CO)C(=O)N[C@@H](Cc1ccc(O)c([N+](=O)[O-])c1)C(=O)N[C@@H](CC(=O)O)C(N)=O
Description: as §1, §2, §3

[5] = substrate: CC(C)CC[C@H](NC(=O)[C@H](C)NC(=O)[C@H](Cc1ccc2ccccc2c1)NC(=O)c1ccccc1N)C(=O)N[C@@H](CO)C(=O)N[C@@H](Cc1ccc(O)c([N+](=O)[O-])c1)C(=O)N[C@@H](CC(=O)O)C(N)=O
Description: as §1, §2, §3

[6] = substrate: CC(C)CC[C@H](NC(=O)[C@H](C)NC(=O)[C@H](Cc1ccc(-c2ccccc2)cc1)NC(=O)c1ccccc1N)C(=O)N1C[C@H](O)C[C@H]1C(=O)N[C@@H](Cc1ccc(O)c([N+](=O)[O-])c1)C(=O)N[C@@H](CC(=O)O)C(N)=O
Description: as §1, §2, §3

[7] = substrate: CC(C)[C@H](NC(=O)c1ccccc1N)C(=O)N[C@@H](C)C(=O)N[C@@H](CCC(N)=O)C(=O)N[C@@H](CO)C(=O)N[C@@H](Cc1ccc(O)c([N+](=O)[O-])c1)C(=O)N[C@@H](CC(=O)O)C(N)=O
Description: as §1, §2, §3

[8] = substrate: CCCC[C@H](NC(=O)[C@H](C)NC(=O)[C@@H](NC(=O)[C@H](Cc1cccc2ccccc12)NC(=O)c1ccccc1N)C(C)C)C(=O)N[C@@H](CO)C(=O)N[C@@H](Cc1ccc(O)c([N+](=O)[O-])c1)C(=O)N[C@@H](CC(=O)O)C(N)=O
Description: as §1, §2, §3

[9] = substrate: CC(C)[C@H](NC(=O)c1ccccc1N)C(=O)N[C@@H](C)C(=O)N[C@@H](CC1CCCCC1)C(=O)N[C@@H](CO)C(=O)N[C@@H](Cc1ccc(O)c([N+](=O)[O-])c1)C(=O)N[C@@H](CC(=O)O)C(N)=O
Description: as §1, §2, §3

[10] = substrate: CC(C)CC[C@H](NC(=O)[C@H](C)NC(=O)[C@H](Cc1ccc(-c2ccccc2)cc1)NC(=O)c1ccccc1N)C(=O)N[C@@H](CO)C(=O)N[C@@H](Cc1ccc(O)c([N+](=O)[O-])c1)C(=O)N[C@@H](CC(=O)O)C(N)=O
Description: as §1, §2, §3

[11] = substrate: CC(C)CC[C@H](NC(=O)[C@H](C)NC(=O)[C@H](Cc1ccc(-c2ccccc2)cc1)NC(=O)c1ccccc1N)C(=O)N[C@@H](CC(C)C)C(=O)N[C@@H](Cc1ccc(O)c([N+](=O)[O-])c1)C(=O)N[C@@H](CC(=O)O)C(N)=O
Description: as §1, §2, §3

[12] = substrate: CC(C)CC[C@H](NC(=O)[C@H](C)NC(=O)[C@H](CC1CCCCC1)NC(=O)c1ccccc1N)C(=O)N[C@@H](CO)C(=O)N[C@@H](Cc1ccc(O)c([N+](=O)[O-])c1)C(=O)N[C@@H](CC(=O)O)C(N)=O
Description: as §1, §2, §3

B1: Der pI (Dermatophagoides pteronyssinus) (protein)
chain: TNACSINGNAPAEIDLRQMRTVTPIRMQGGCGSCWAFSGVAATESAYLAYRNQSLDLAEQELVDCASQHGCHGDTIPRGIEYIQHNGVVQESYYRYVAREQSCRRPNAQRFGISNYCQIYPPNVNKIREALAQTHSAIAVIIGIKDLDAFRHYDGRTIIQRDNGYQPNYHAVNIVGYSNAQGVDYWIVRNSWDTNWGDNGYGYFAANIDLMMIEEYPYVVIL
notes: tissue SmithKline-Beecham, U.K (crude mite extract); host or cells: crude house dust mite extract
Km [1]: 18 µM | Km [2]: 4 µM | Km [3]: 20 µM | Km [4]: 10 µM | Km [5]: 15 µM | Km [6]: 4 µM | Km [7]: 6 µM | Km [8]: 17 µM | Km [9]: 5 µM | Km [10]: 2.5 µM | Km [11]: 3.7 µM | Km [12]: 9 µM

Source: patent US6528275B1, “Substrates and inhibitors of proteolytic enzymes” (Peptide Therapeutics Limited, priority 1996, dated 2003)
